Assay results as given in the supplement of paper PMC10126150.
± gives the standard deviation of the averaged measurements.

The sequences below were run on ATP (assay: switch fluorescence ratio, 500 uM ATP over buffer (Cy3 cluster intensity, sum of 5 cycles each) (fold (ratio)); higher = stronger signal-on switching upon ATP binding; sequences stand for … in TCGTCGGCAGCGTCAGATGTGTATAAGAGACAGTTTTTTTTTTTTTTTTTTTTTTTTT…TC). Settings: aptamer strand: ATP DNA aptamer (quencher-CACCTGGGGGAGTATTGCGGAGGAAGG + anchor), 100 nM annealed; ATP concentration: 500 uM.
Procedure, shortened: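 For every switch-domain sequence, the fluorescence ratio is the mean of per-cluster values, each being summed target-cycle Cy3 intensity over summed buffer-cycle Cy3 intensity. Clusters outside 100-1000 RFU were excluded. On a modified Illumina MiSeq flow-cell, the Cy3-labelled switching-strand clusters were annealed to 100 nM quencher-labelled ATP aptamer, imaged in selection buffer and then after 15 min with 500 uM ATP at 22 °C. Five such cycles were run, with NaOH stripping and re-annealing between them.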
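Also: ATP exposure 15 min at 22 °C before imaging.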

| Sequence | switch fluorescence ratio |
| --- | --- |
| TGGGTTAGGG | 1.03 ± 0.044 |
| GTTGGGGTCA | 0.988 ± 0.011 |
| CGGGATGCCT | 1 ± 0.021 |
| TCTATGGGGT | 1 ± 0.019 |
| TTCTTAGCTT | 0.998 ± 0.019 |
| TAACACATTT | 0.98 ± 0.059 |
| GATGGTAGCC | 0.9862 ± 0.0098 |
| GGTGTGCAAG | 0.947 ± 0.04 |
| CAGATAGCAG | 1.093 ± 0.0021 |
| TTAGAGCGTT | 1.72 ± 1 |
| CTCGATAGGT | 0.984 ± 0.028 |
| AATTTGTTAG | 0.985 ± 0.018 |
| GTTATTAGTG | 0.993 ± 0.016 |
| TATTAGTGCT | 0.977 ± 0.033 |
| GTTAACGGGT | 0.997 ± 0.02 |
| AGTTTACGTG | 1 ± 0.0033 |
| TCAGGGGCGG | 1.04 ± 0.096 |
| ATCGTTGGG | 1.01 ± 0.055 |
| TAACGCTGTT | 1.01 ± 0.0068 |
| GGTGAGATGG | 1 ± 0.069 |
| TTTGACGATT | 1 ± 0.049 |
| CTCGGTTTAG | 1 ± 0.038 |
| ATTTGAGTTG | 0.965 ± 0.01 |
| AACGGATGAG | 0.987 ± 0.038 |
| AAGGTGAGGT | 1.038 ± 0.006 |

| Sequence | switch fluorescence ratio |
| --- | --- |
| AGCGATGCGG | 0.9867 ± 0.0023 |
| CACTCTACGA | 1.41 ± 0.073 |
| CGGGCTCCGC | 1.21 ± 0.099 |
| ATAGGGGTCG | 1.01 ± 0.076 |
| AAGGGGGTGT | 0.965 ± 0.026 |
| ATGTGGTTCC | 1.004 ± 0.0025 |
| ACAAAGAGTC | 0.9932 ± 0.0083 |
| GACGTTTTGG | 0.997 ± 0.025 |
| CAATATTAGT | 0.996 ± 0.024 |
| ACCGGGTGTA | 1.3 ± 0.086 |
| GGGGTTGGCA | 1.03 ± 0.014 |
| GCTACCCACT | 1.46 ± 0.033 |
| GTTTAAACGT | 1.02 ± 0.021 |
| GTTGGGATAA | 1 ± 0.038 |
| GGGAGCTTTT | 0.999 ± 0.023 |
| AAGGATTATT | 0.97 ± 0.024 |
| CTATTTCGGG | 0.979 ± 0.052 |
| CCGGATGGGT | 1.012 ± 0.0037 |
| GGCGGGATAT | 1.01 ± 0.032 |
| TAGAAATTTC | 1.02 ± 0.036 |
| CACATGCTCG | 1.05 ± 0.076 |
| GTAAAGTTTT | 0.991 ± 0.018 |
| GTGGGTGAC | 0.977 ± 0.049 |
| AGGCAGTGGG | 0.998 ± 0.028 |
| TTTTGGAAAC | 1.11 ± 0.17 |

| Sequence | switch fluorescence ratio |
| --- | --- |
| GGTTCAAGGT | 0.994 ± 0.027 |
| AATTCGACGT | 0.9963 ± 0.0091 |
| CACTTCATTT | 1.01 ± 0.013 |
| TCGTGGTGGG | 0.994 ± 0.012 |
| GATGTAGGTT | 0.98 ± 0.029 |
| CAGGATATAT | 1.01 ± 0.027 |
| TATTTGTACG | 1.018 ± 0.0046 |
| CGGTGGTGAT | 1.009 ± 0.0059 |
| TAGGTGCTTC | 1.029 ± 0.0099 |
| TGATTGTTGG | 1.01 ± 0.012 |
| TGAGGCCTAG | 1.02 ± 0.056 |
| AATGGACGTG | 1 ± 0.028 |
| TCAGATGGGG | 1.03 ± 0.021 |
| TGGGCGAAAA | 0.974 ± 0.045 |
| ATTAACCATT | 1.01 ± 0.014 |
| AAAATGTGGG | 0.987 ± 0.041 |
| TGGGCGGGTT | 0.989 ± 0.032 |
| TTAAAAGAGG | 1.01 ± 0.014 |
| AGGAGTGGTA | 0.999 ± 0.013 |
| AGGAATTACG | 1.05 ± 0.041 |
| CGATGGCGTT | 0.96 ± 0.016 |
| TTCAGCGCGC | 1.007 ± 0.0075 |
| CCATTAAAAG | 1 ± 0.052 |
| GGGGTGGATT | 0.974 ± 0.013 |
| ATTAATGGCG | 0.9554 ± 0.009 |

| Sequence | switch fluorescence ratio |
| --- | --- |
| ATATTTAATC | 0.999 ± 0.0079 |
| TAGGATGAGT | 0.99997 ± 0.00035 |
| CGGTTAGACG | 0.977 ± 0.008 |
| GTAGGGGCGG | 1.0124 ± 0.00012 |
| GGATTAGACG | 0.955 ± 0.062 |
| TTCGGTACGT | 0.999 ± 0.0024 |
| TTTGATATTG | 0.994 ± 0.038 |
| TCGTCGCAGG | 1.1 ± 0.058 |
| GATGGGGGAA | 0.986 ± 0.049 |
| TCCGTAAATT | 1.14 ± 0.013 |
| CAAAGGGAAA | 1.02 ± 0.033 |
| TGGCTAAGGT | 1.023 ± 0.0017 |
| ATTGCAGTTG | 0.954 ± 0.013 |
| TTTTTTAATG | 1 ± 0.033 |
| GTAATAGAGG | 0.9774 ± 0.0096 |
| CTGAATTGGG | 0.999 ± 0.021 |
| GGATTAGGAG | 0.975 ± 0.011 |
| GAGAGGCTGT | 0.9538 ± 0.0062 |
| AGGGACTGAC | 1.24 ± 0.075 |
| TGATTTATAG | 1.012 ± 0.009 |
| GACTTCGAGC | 1.02 ± 0.024 |
| GAGGTGTCG | 1.04 ± 0.041 |
| CTGATTTTAT | 0.9856 ± 0.0013 |
| CGGCTCTTTG | 0.985 ± 0.043 |
| GAATACCTTT | 1.02 ± 0.013 |

| Sequence | switch fluorescence ratio |
| --- | --- |
| GTTCCTTTTT | 1.02 ± 0.064 |
| TAGGTCAATC | 1.026 ± 0.0029 |
| GTGGTAGGTT | 0.981 ± 0.027 |
| GAAGTCCTGT | 0.998 ± 0.021 |
| TGTATTCAGG | 1.01 ± 0.056 |
| CGTATTTTTA | 1 ± 0.089 |
| CGGGCCACGC | 1.04 ± 0.019 |
| TGTTTAACAT | 0.981 ± 0.035 |
| CGTGGATTCC | 1.03 ± 0.011 |
| GGTAGGGGGG | 1.01 ± 0.035 |
| AACTGACGGA | 1.14 ± 0.026 |
| TTTTTCTGGA | 0.993 ± 0.021 |
| TTGGTTTAGT | 1.01 ± 0.025 |
| GAGTGAGGGC | 0.9957 ± 0.003 |
| GCCTAGCATA | 1.02 ± 0.018 |
| ATGTCAGAGG | 0.977 ± 0.041 |
| AAGGGGACAC | 1.02 ± 0.014 |
| GTTATTGGGT | 0.988 ± 0.046 |
| TACGGGGTAG | 0.996 ± 0.028 |
| CGGGGGAGGG | 1.16 ± 0.45 |
| TAGGGTTAAT | 1.03 ± 0.038 |
| TGGGGAAAGG | 0.978 ± 0.034 |
| GCTGGGGATT | 0.987 ± 0.02 |
| AGTGACGTAC | 1.77 ± 0.075 |
| CTTGGTGTTG | 1.04 ± 0.065 |

| Sequence | switch fluorescence ratio |
| --- | --- |
| AAGGGCCGGG | 0.967 ± 0.029 |
| TTTTTCTATG | 0.983 ± 0.05 |
| TTAGTATATT | 1.03 ± 0.0093 |
| GGGGAATTCA | 1.04 ± 0.046 |
| ACCGCTGGTC | 1.13 ± 0.056 |
| ACAGTAGTTA | 1.046 ± 0.0065 |
| TTTGAGGACA | 1.01 ± 0.012 |
| GTGTACAAAT | 0.9896 ± 0.0041 |
| CGTTGCACCT | 0.952 ± 0.051 |
| TAAAGTGGCG | 1.05 ± 0.039 |
| TTAAATTTGG | 1.01 ± 0.027 |
| TAAATGTGCG | 0.996 ± 0.031 |
| TTTTCCAAGA | 1.09 ± 0.1 |
| TTTTTCCCCT | 0.992 ± 0.023 |
| AGAATAGGCG | 1.02 ± 0.022 |
| AGGGGGGCGC | 0.993 ± 0.033 |
| TTCACTTAGC | 1.075 ± 0.0076 |
| GGTAGCTTGG | 1.13 ± 0.17 |
| TTAATTACCA | 0.984 ± 0.029 |
| TCCTGGTGAT | 1.22 ± 0.12 |
| GCGTCTTGGG | 0.96 ± 0.025 |
| GCGAATGCGG | 1.006 ± 0.003 |
| AAGATAGAAA | 1.01 ± 0.013 |
| TATCGACGTT | 0.97 ± 0.038 |
| CAAGCCGGGG | 0.979 ± 0.021 |

| Sequence | switch fluorescence ratio |
| --- | --- |
| AAATTGTTG | 1.022 ± 0.0087 |
| CGGAATGGTA | 1.08 ± 0.067 |
| TTTGTTCACA | 1.06 ± 0.043 |
| TCATGTGTTG | 0.992 ± 0.045 |
| AATAAATGCT | 0.99 ± 0.036 |
| GGGTCAGGTT | 1.01 ± 0.029 |
| TAGCCTATTT | 0.975 ± 0.038 |
| GCTTACGGGG | 1.04 ± 0.049 |
| TATTTTGCGC | 1.02 ± 0.026 |
| CCAGTGTGAG | 1.13 ± 0.039 |
| AGTCGTCACG | 0.9926 ± 0.0099 |
| CGGTGTAGAG | 0.996 ± 0.0093 |
| GGCCGGAGGT | 1 ± 0.011 |
| TAAGTGTTGC | 1 ± 0.037 |
| ACTTTCGATT | 1.09 ± 0.13 |
| AGGTACGACG | 0.99 ± 0.013 |
| GATGGACATA | 1.031 ± 0.0015 |
| CCTGCCGTTA | 1.27 ± 0.078 |
| GTGTTTAGGG | 0.999 ± 0.021 |
| AACTAATCGC | 1.03 ± 0.029 |
| ACTTAATCGT | 1.02 ± 0.045 |
| CACAATCGGG | 1.005 ± 0.0088 |
| ACAGAAGCTT | 1.03 ± 0.015 |
| GGAGGCAGGG | 0.9965 ± 0.0096 |
| TTCGTCAGGA | 0.978 ± 0.036 |

| Sequence | switch fluorescence ratio |
| --- | --- |
| CGAAAATGGT | 1.04 ± 0.13 |
| TTGAGTATGC | 1.07 ± 0.047 |
| TACGGGGACG | 1.02 ± 0.026 |
| GCAGGAGTTG | 0.978 ± 0.087 |
| CAAGTGTGAG | 0.985 ± 0.013 |
| TATTTTTCTC | 0.983 ± 0.034 |
| CGTATTCATA | 0.977 ± 0.037 |
| ACGGGTTTTT | 0.999 ± 0.015 |
| ACTAAATAAA | 1.14 ± 0.23 |
| ATTGATTTAG | 0.9756 ± 0.0095 |
| GTTATATCGC | 0.985 ± 0.03 |
| CGCTGACATT | 1.019 ± 0.0034 |
| AATTCGTGCG | 0.9872 ± 0.0086 |
| ATAGCCGTCG | 1.07 ± 0.12 |
| CATTTAGTTG | 0.985 ± 0.042 |
| CGATGTTTAG | 0.986 ± 0.019 |
| TATGCGTCGA | 0.979 ± 0.013 |
| GGTGTAGATT | 1.07 ± 0.04 |
| CCTATTTATT | 1.01 ± 0.02 |
| ATTTTTGCTT | 0.994 ± 0.019 |
| GGCGCGCGGG | 0.991 ± 0.00073 |
| CGTATTTAGA | 0.99 ± 0.064 |
| CTGGCTTTTG | 0.999 ± 0.017 |
| ATTTACATCA | 1.02 ± 0.013 |
| GCGTTTGGCT | 0.996 ± 0.021 |
